Measured values reported in the DeepSol protein solubility set.

Assay: soluble on expression in E. coli; label from the status in PepcDB or PDB records
For “MGSDKIHHHHHHMDLSNLNEKDMALGCKYCIKGEKLVLYITGLCEESCYYCPLSEKRKKKDVIFANEKQINSIEEAVEEARLCGSKGVGITGGNPLLRIERTVEYLKALKEEFGSDFHAHLYTTPKFVSEKNLKLLKDAGLDEIRLHSSKLFNDFENFDKLDFLEKLKLCKNYIKDVGVEIPGIPNFEKEILDLAFEIDKIGVKFLNINELEYSETNYQSLIDRGFSEKDDTTSRISGSFETAKYIIDNFKGKLIIHFCPSSLKDSVQMKNRLINRARNVAKPYEEITEEGLLLKGTINFKDLKDVSEVLEVLKENDVEFELLNDRLLLNPEILEDLIDHLKENNFDFKFSAYISEYYPTSDKLEVERIPLVTKKPNLKLKKK”, the “soluble on expression in E. coli” value was “not soluble”.
With “MSLSNIAVSEKDLQRFCRDLLKQSLPDEEAEVIAETLVDADLRGVTSHGVQRVAGYLKRMEDGIIERKTDISVVQDSFATALLDANNGWGQVAGVKAMEMAIQKAGQYGTSFVGVSNSNHFGTASFYTRMAAEKGFIGISMTNASPIMVPFGAKEPSLGPNPISISIPAGEGKKPIILDMSTSNVARGKIMVAKKNKESIPEGWAITKDGKQTTDADEAWEGFVLPMGPKGSGLAIIIDILSGVLTGSLFGKRIPRQYDDPYPQQLGHLFGAINIENFGEPELFYQNVLEKIEETISSEPSEGFDQVYMPGDMESQRKKEYKENGIPLSQEIINELRKTGEKYGVDLEHYLSQNKQREGHHHHHH” the “soluble on expression in E. coli” value was “soluble”.
With “DNMFCNKEYCNRLKDENNCISNLQVEDQGNCDTSWIFASKYHLETIRCMKGYEPTKISALYVANCYKGEHKDRCDEGSSPMEFLQIIEDYGFLPAESNYPYNYVKVGEQCPKVEDHWMNLWDNGKILHNKNEPNSLDGKGYTAYESERFHDNMDAFVKIIKTEVMNKGSVIAYIKAENVMGYEFSGKKVKNLCGDDTADHAVNIVGYGNYVNSEGEKKSYWIVRNSWGPYWGDEGYFKVDMYGPTHCHFNFIHSVVIFNVDLPMN” the “soluble on expression in E. coli” value was “soluble”.
In the case of “MGSDKIHHHHHHMGKTTRKVQITGGSTFIVSLPPEWVKRNGITKGSEISISDDGNDLVISSSNPDLPEVSKKIIIPPNYTGKPLQRLLTSSYISGFDTLSIVSKEKMGSELRDDIKRFSKVVMGIEIIEETSKSVVLQNVLNVKTFPLSKAIRRMSLNVGTMIEDTIKAIEDYDEELFQNVIERDDEVDRYQWYIYREVKNHCQYEDSNVFMLVLSRILERMADHTVNICIAMKDRKAVNGRMEMIDNLKFSLDVYNHAVESFYSKNFKVLDGIINQKSEINERKFKLLKILSYDVVLSSIAEEISRIGLYGTDIAELAMDLILSDKLEFSVQ”, the “soluble on expression in E. coli” value is reported as “not soluble”.
In the case of “GPGSMQKQHAPGRGLVLHSHKVKGQQQERNDSLVQCAQHPPLQKRVNPHPHSHSSKPIPNIFVVITGLVVNPRTGSFHDFRSPCFPPPRGGGKGRNAWGNRNGEKVEAALAALQIGIFGDQHHIAGKEACQVDKKPSCSFFLTWPHILPTRFQRKKKRKNY”, the “soluble on expression in E. coli” value is reported as “not soluble”.
For “MKKVLLTAINSQFIHSNLAVRYLKAYAKELDLQIKIREFSINDRLERIFEEIMYEKPDIVGFSCYIWNGEYVDKLSNLIKRVDENIQIFYGGPEVSFDCREVLLNSSADFLIEGEGEESFKEFLKWKLENGFDRKDLKIKGVYSKCQNQILYGGQREALDMNLLEFPYNEEDDLSNKIIYYEASRGCPFNCKYCLSSTIRGVRFLNPDRVKRELKFLADKKVKIVKFVDRTFNANPKFAMEIWKYLMELDTETVFHFEITADIVTEDEIELLKNAPKGRFQFEVGVQSTNNEVLKNVNRYIEFKDIKEIVMKLEEGKNINQHLDLIVGLPGEDFNSFKNSFNDVYSIGPEKLQIGFLKLLKGSSMREEAEKWGMSYSPYHPYEILRTKDISFEEISILKRVDSVVDKYYNTGKFDHIVEFLISDFETPFDFYYKLSEYFYHKGYFNRSISASEYYKVFLDFNKEILKKENDVLEEIVKFEYLKFNKKSWLPPFLTRLNVKEEEQAIKEKLKEENKFDKKLHLEKFSIDIDRYITKKEIVYKEMYHIFN”, the “soluble on expression in E. coli” value was “not soluble”.
For “MGSDKIHHHHHHMARTNPHRPFVPDPEQAALAPGVSGNDINGLGETAFRRPRMVYWAPDPDDIPHGSLQRYFYRQSAKEPDFASRRAARQAVLDAPLPLLADTVVIRDPADWTAALTQFVDSGLCDLTGVAEMNPDWVFEGHEIPQSRVIMIGVAHDYNVIATAPKPSAGLEVMTQYTRAAQAAKTIAGWLRQQGWQAEPLTGPMTGALAMIPPALACGFGELGKHGSIINPDLGASFRLSAVLSDAPFAPTPAQDHGIDGFCQNCHICQDACPPEALFAQKQTVRGARKWYVDFDKCLPFFNQTHGCAICIAECPWSRPGIGPNLAAKLARKRNRDATG”, the “soluble on expression in E. coli” value was “not soluble”.
For “MGSDKIHHHHHHMSRDAPIKADKDYSQILKEEFPKIDSLAQNDCNSALDQLLVLEKKTRQASDLASSKEVLAKIVDLLASRNKWDDLNEQLTLLSKKHGQLKLSIQYMIQKVMEYLKSSKSLDLNTRISVIETIRVVTENKIFVEVERARVTKDLVEIKKEEGKIDEAADILCELQVETYGSMEMSEKIQFILEQMELSILKGDYSQATVLSRKILKKTFKNPKYESLKLEYYNLLVKISLHKREYLEVAQYLQEIYQTDAIKSDEAKWKPVLSHIVYFLVLSPYGNLQNDLIHKIQNDNNLKKLESQESLVKLFTTNELMRWPIVQKTYEPVLNEDDLAFGGEANKHHWEDLQKRVIEHNLRVISEYYSRITLLRLNELLDLTESQTETYISDLVNQGIIYAKVNRPAKIVNFEKPKNSSQLLNEWSHNVDELLEHIETIGHLITKEEIMHGLQAK”, the “soluble on expression in E. coli” value was “not soluble”.
In the case of “MGSDKIHHHHHHMPTRSTPTERQKRLGAELRKMRLAAGAPTEYAAGLLGIDRTRLSNMESGIRPFSPDRVRTLACNYSCTDDGYIEALVAMTSTKERGWWERHRGILPSGLLDIAELEWHATRVRTAQVMHAPGLLQTEDYARGVFTAVLPPLTRLEVELRVAHRMERQQVLERPSPLPYIAYVHEAVLRMPYGGTEATQQQLKHLCSQSERENIEVRVIPTSTGGFPGAGHALLYADGAVPQLDTVQLDSAHGPEFTHADAQLTKYRSHLNWMDGAAMTSAASRDLIRKIARDL”, the “soluble on expression in E. coli” value is reported as “not soluble”.
In the case of “NKGKDITSWVNKALDAIAALFSAKTWKRKPKMKVHYGNNTRQNDYDYNARKKAQSDEIDRILDKLKKSGYESLTTEEKKSLFDASKR”, the “soluble on expression in E. coli” value is reported as “not soluble”.
For “MGSDKIHHHHHHMNKLEIENLSKIYGKKVANDKITVTLENGVYGLLGPNGAGKSTLMKQITTLIKPDEGQILYNGEDIFKMDADYRNILGYLPQEFGVYKNFTAKEFLQYIGALKGLRGKYLNSKIGELLDLVGLYDVRNKSIGKFSGGMKRRVGIAQVLLNDPKIIVLDEPTAGLDPQERARFRNLIAKMSRDKIIILSTHIISDIESVAKETIMIKDGKLLMKGTHKDILSHMENKVYNVQVKNECEVDDIQSKYKVVSIQSDINSIVLRIVSEDIPSEDNIQPVQAKFEDVYMFYFDLEDAREV”, the “soluble on expression in E. coli” value was “not soluble”.
In the case of “MDRPVRVLFVCLGNICRSPMAEGIFRKLLKERGLEDRFEVDSAGTGAWHVGEPMDPRARRVLEEEGAYFPHVARRLTREDVLAYDHILVMDRENLEEVLRRFPEARGKVRLVLEELGGGEVQDPYYGDLEDFRKVYWTLEAALQAFLDRHGSPSPAAEGRA”, the “soluble on expression in E. coli” value is reported as “soluble”.
With “MNLQIKHAIFVLGIFLQVQGIKDTSIKIFSSEIKNIDKTPRIETIESTSTVHKVSTMKRIFDLPKLRTKRSALFPAANICPQESLRQILASLQEYYRLRVCQEVVWEAYRIFLDRIPDTEEYQDWVSLCQKETFCLFDIGKNFSNSQEHLDLLQQRIKQRSFPGRKDETASMETLEAPTEAPVVPTDVSRMSLGPFPLPSDDTDLKEILSVTLKDIQKPTTESKTEPIHVSEFSSEEKVEFSISLPNHRFKAELTNSGSPYYQELVGQSQLQLQKIFKKLPGFGEIRVLGFRPKKEEDGSSSTEIQLMAIFKRDHAEAKSPDSHLLSLDSNKIESERIHHGVIEDKQPETYLTATDLKKLIIQLLDGDLSLVEGKIPFGDEVTGTLFRPVTEPDLPKPLADVTEDATLSPELPFVEPRLEAVDREGSELPGMSSKDSSWSPPVSASISRSENLPSFTPSIFSLDAQSPPPLMTTGPTALIPKPTLPTIDYSTIRQLPLESSHWPASSSDRELITSSHDTIRDLDGMDVSDTPALSEISELSGYDSASGQFLEMTTPIPTVRFITTSSETIATKGQELVVFFSLRVANMPFSYDLFNKSSLEYQALEQRFTDLLVPYLRSNLTGFKQLEILSFRNGSVIVNSKVRFAKAVPYNLTQAVRGVLEDLRSTAAQGLNLEIESYSLDIEPADQADPCKLLDCGKFAQCVKNEWTEEAECRCRQGHESHGTLDYQTLNLCPPGKTCVAGREQATPCRPPDHSTNQAQEPGVKKLRQQNKVVKKRNSKLSAIGFEEFEDQDWEGN” the “soluble on expression in E. coli” value was “soluble”.
In the case of “PVLFLALPALAQERKKVGVVLSGGGAKGVAHIQALKVIEEAGIPIDYIVGTSMGSIIGGLYSIGYTPQQLDSMVRKQDWMFLLSDRVKRSAMSLNEREKSEKYVFSFPFTKSPKDAVSGGIIKGQNLANLFTELTVGYHDSVDFNKLPIPFACVSQNIVNGEQIVFHNGILATAMRASMAIPGVFTPVRKDSMILIDGGMINNYPVDVARSMGADIIIGVDVQNNLKGID”, the “soluble on expression in E. coli” value is reported as “not soluble”.
In the case of “MAHHHHHHMAQRVAIPDDCVYEGYGNLYRGDAEVTPPQPIVGARGGNGVLYGTIDSEEALRQLRTALRVDVHPQLKALVQEKKLDEVASSPASLPWLVCRPNALPLRTLPSSFSSGTRYEIERMKSQCRFLRDWLMCHETPEERVEAREFLRTAQRLLQKESVEELLGRTENLLQQLENWPAVVEKARPHIAEWNNDKSLTELREFVGDVLGTDEVCARLSKLTCRFSLLAPLLEEAAFRSAALEEMEQWSSEATVSSLRSLRASIHDWELRVAKDQQNVLDSSQLLLERIAAVRNKRRESAGDLT”, the “soluble on expression in E. coli” value is reported as “soluble”.
In the case of “MNHTADNCIFCKIIDGQILCSKVYEDEHVLAFLDISQVTKGHTLVIPKVHKQDIFALTPEIASHIFSVVPKIANAIKAEFNPVGFNLLNNNGEKAGQTVFHFHLHLIPRYGENDGFGAVWKSHQNEYTMENLQNIASTIANSVK”, the “soluble on expression in E. coli” value is reported as “not soluble”.
With “MGSDKIHHHHHHMKILYISNFNLPDFQNDMIFHGLRSVFGNDCIDSNEAWYMYEDFRNYWNVRVPENGMSYGRGFTLYGKLPKIDIDRKNIYEKIKDKYFDKIVYGSITRNNMFLDEVISIYEKNNIIMIDGEDNTEINQNFFGKGIYFKRELIYEPTSYLKPIGFCIPNETIVNNISIKEKDYGHVIPGDPETYIYTDEVSYFEDYRKSYFGVTMKKGGWDCLRHYEILMNGCIPYFLNLEQCPKYTMTHFPKNIILDVINKINTESNILNFYNEYVDILLEYTRNKLTTRKVIESIL” the “soluble on expression in E. coli” value was “not soluble”.
With “MTKRIEIKPATAADQAALAEIYLVDRQQDFPWVTDPQLQDFNEDSRGEFVLVAWIDGQRAGFCSLYRLANFIHLLFVAPDFRHLKVGERLLTEMRQYATEPLTLKCVMANENALRFYAQVGFRIVKADADALPPNYTLRDTHTEQYVALVDVMANERKLN” the “soluble on expression in E. coli” value was “soluble”.
In the case of “MYLSHFGFRVQPFSLTPNTEMFLGLVPHYEAIQTILAAVQMGEGVIKVTGEVGTGKTMVCRKLIEQIESQVELVYLPNPVLNGEQLQFAVARELGIDNDDPLRIVSLIQEHLIRVHSTGKKTVLIVDEAQALSPEALETLRLFGNLETEQDKLIQLVLFGQPELDERLSMHELRQFRQRITFSCGLRPLSVDEGVAYINNRLDKAGNGAHIFSIEQKKAIWRSAMGIPRLINQISHKALLAAFNDRCTLLKNHHVYAAMHDTFDARKPKFKTPVFWGWSQPLEHHHHHH”, the “soluble on expression in E. coli” value is reported as “not soluble”.
